Read-outs that look alike come from different tables or passages of the source.
B1: anti-CTLA-4 antibody heavy chain D106C (antibody, human IgG1, kappa, V domains shown)
VH: QVQLVESGGGVVQPGRSLRLSCAASGFTFSSYTMHWVRQAPGKGLEWVTFISYDGNNKYYADSVKGRFTISRDNSKNTLYLQMNSLRAEDTAIYYCARTGWLGPFCYWGQGTLVTVSS
VL: not shown
B2: Ipilimumab L31 Ser to Cys (antibody, V domains shown)
VH: QVQLVESGGGVVQPGRSLRLSCAASGFTFSSYTMHWVRQAPGKGLEWVTFISYDGNNKYYADSVKGRFTISRDNSKNTLYLQMNSLRAEDTAIYYCARTGWLGPFDYWGQGTLVTVSS
VL: not shown
modifications: chain 2 pos 32 (Kabat L31): introduced Cys carrying the conjugated group of the row (R4-1 or S47), written C
B3: anti-CTLA-4 antibody heavy chain Y60C (antibody, human IgG1, kappa, V domains shown)
VH: QVQLVESGGGVVQPGRSLRLSCAASGFTFSSYTMHWVRQAPGKGLEWVTFISYDGNNKYCADSVKGRFTISRDNSKNTLYLQMNSLRAEDTAIYYCARTGWLGPFDYWGQGTLVTVSS
VL: not shown
B4: anti-CTLA-4 antibody heavy chain Y53C (antibody, human IgG1, kappa, V domains shown)
VH: QVQLVESGGGVVQPGRSLRLSCAASGFTFSSYTMHWVRQAPGKGLEWVTFISCDGNNKYYADSVKGRFTISRDNSKNTLYLQMNSLRAEDTAIYYCARTGWLGPFDYWGQGTLVTVSS
VL: not shown
B5: Ipilimumab L52 Phe to Cys (antibody, V domains shown)
VH: QVQLVESGGGVVQPGRSLRLSCAASGFTFSSYTMHWVRQAPGKGLEWVTFISYDGNNKYYADSVKGRFTISRDNSKNTLYLQMNSLRAEDTAIYYCARTGWLGPFDYWGQGTLVTVSS
VL: not shown
modifications: chain 2 pos 53 (Kabat L52): introduced Cys carrying the conjugated group of the row (R4-1 or S47), written C
B6: anti-CTLA-4 antibody heavy chain K65C (antibody, human IgG1, kappa, V domains shown)
VH: QVQLVESGGGVVQPGRSLRLSCAASGFTFSSYTMHWVRQAPGKGLEWVTFISYDGNNKYYADSVCGRFTISRDNSKNTLYLQMNSLRAEDTAIYYCARTGWLGPFDYWGQGTLVTVSS
VL: not shown
B7: Ipilimumab L33 Leu to Cys (antibody, V domains shown)
VH: QVQLVESGGGVVQPGRSLRLSCAASGFTFSSYTMHWVRQAPGKGLEWVTFISYDGNNKYYADSVKGRFTISRDNSKNTLYLQMNSLRAEDTAIYYCARTGWLGPFDYWGQGTLVTVSS
VL: not shown
modifications: chain 2 pos 34 (Kabat L33): introduced Cys carrying the conjugated group of the row (R4-1 or S47), written C
B8: anti-CTLA-4 antibody heavy chain Y59C (antibody, human IgG1, kappa, V domains shown)
VH: QVQLVESGGGVVQPGRSLRLSCAASGFTFSSYTMHWVRQAPGKGLEWVTFISYDGNNKCYADSVKGRFTISRDNSKNTLYLQMNSLRAEDTAIYYCARTGWLGPFDYWGQGTLVTVSS
VL: not shown
B9: anti-CTLA-4 antibody heavy chain K58C (antibody, human IgG1, kappa, V domains shown)
VH: QVQLVESGGGVVQPGRSLRLSCAASGFTFSSYTMHWVRQAPGKGLEWVTFISYDGNNCYYADSVKGRFTISRDNSKNTLYLQMNSLRAEDTAIYYCARTGWLGPFDYWGQGTLVTVSS
VL: not shown
B10: Ipilimumab L50 Gly to Cys (antibody, V domains shown)
VH: QVQLVESGGGVVQPGRSLRLSCAASGFTFSSYTMHWVRQAPGKGLEWVTFISYDGNNKYYADSVKGRFTISRDNSKNTLYLQMNSLRAEDTAIYYCARTGWLGPFDYWGQGTLVTVSS
VL: not shown
modifications: chain 2 pos 51 (Kabat L50): introduced Cys carrying the conjugated group of the row (R4-1, R4-3 or S47), written C
B11: Ipilimumab L34 Ala to Cys (antibody, V domains shown)
VH: QVQLVESGGGVVQPGRSLRLSCAASGFTFSSYTMHWVRQAPGKGLEWVTFISYDGNNKYYADSVKGRFTISRDNSKNTLYLQMNSLRAEDTAIYYCARTGWLGPFDYWGQGTLVTVSS
VL: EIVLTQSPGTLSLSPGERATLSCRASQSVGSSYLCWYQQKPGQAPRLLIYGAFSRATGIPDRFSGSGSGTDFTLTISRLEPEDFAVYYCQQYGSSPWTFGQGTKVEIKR
modifications: chain 2 pos 35 (Kabat L34): introduced Cys carrying the conjugated group of the row (R4-1 or S47), written C
B12: Ipilimumab L51 Ala to Cys (antibody, V domains shown)
VH: QVQLVESGGGVVQPGRSLRLSCAASGFTFSSYTMHWVRQAPGKGLEWVTFISYDGNNKYYADSVKGRFTISRDNSKNTLYLQMNSLRAEDTAIYYCARTGWLGPFDYWGQGTLVTVSS
VL: not shown
modifications: chain 2 pos 52 (Kabat L51): introduced Cys carrying the conjugated group of the row (R4-1 or S47), written C

Columns and labels:
CTLA-4 [1] = biological target: CTLA-4 (UniProt P16410 36-162, limits assumed); assay: ELISA, OD mutant/OD WT; ↓=less than 70%
Target sequence in this assay (P16410 36-162 limits assumed): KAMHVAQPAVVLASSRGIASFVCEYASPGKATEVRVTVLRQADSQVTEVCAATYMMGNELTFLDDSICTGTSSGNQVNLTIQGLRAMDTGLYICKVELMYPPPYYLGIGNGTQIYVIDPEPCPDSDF

CTLA-4 [2] = biological target: T1, CTLA-4 (UniProt P16410 36-162, limits assumed); assay: ELISA; S47 on the Cys
T1 construct: also called CTLA-4 protein
T1 sequence (P16410 36-162 limits assumed): as above

CTLA-4 [3] = biological target: T1, CTLA-4; assay: ELISA; R4-1 on the Cys
CTLA-4 [4] = biological target: T1, CTLA-4; assay: ELISA; R4-1 on the Cys; remark: listed apart in the source

Binder	binding activity vs wild type (CTLA-4 [1])	Activity after S47 (40 kD) blocking (CTLA-4 [2])	Binding activity (CTLA-4 [3])	Binding activity (CTLA-4 [4])
B1	< 70%			
B2		12%	99%	99%
B3	< 70%			
B4	< 70%			
B5		16%	72%	72%
B6	< 70%			
B7		6%	95%	95%
B8	< 70%			
B9	< 70%			
B10		19%	97%	97%
B11		11%	92%	92%
B12		25%	92%	92%

Source: patent publication US20230158141A1 (YAFEI SHANGHAI BIOLOG MEDICINE SCIENCE AND TECHNOLOGY, published 2023)
